How the values were obtained:
[1] = target: GST-Syn-3 (cytoplasmic domain a.a. 1–263) (UniProt Q08849); experiment: pull-down; GST-Syn-1A (1-265) or GST-Syn-3 (1-263) on glutathione agarose beads incubated with lysate of HEK293 cells transfected with Cav1.3 or Cav2.3, 4°C, 2 h; washed with 20 mM HEPES pH 7.4, 150 mM KOAc, 1 mM EDTA, 1 mM MgCl2, 5% glycerol, 0.1% Triton X-100; blots quantified as percent recovery
[2] = target: GST-Syn-1A (cytoplasmic domain a.a. 1–265) (UniProt P32851); experiment: as above
[3] = target: Syn-3 expressed in HEK293 cells (UniProt Q08849); experiment: co-IP; HEK293 cells co-transfected with Cav1.3 or Cav2.3 and Syn-1A or Syn-3; IP with anti-Syn-1A or anti-Syn-3 antibody; blots quantified as percent recovery of total lysate input
[4] = target: Syn-1A expressed in HEK293 cells (UniProt P32851); experiment: as above
[5] = target: Syntaxin-3 (endogenous, INS-1 832/13 cells) (rat (endogenous in INS-1 832/13)) (UniProt Q08849); experiment: co-IP; IP with 2 μg Syn-3 or Syn-1A antibody from 1 mg INS-1 832/13 lysate; cells at basal 0.8 mM glucose or stimulated with 16.7 mM glucose plus 10 nM GLP-1 for 30 min; blots quantified as percent recovery of total lysate input
[6] = target: Syntaxin-1A (endogenous, INS-1 832/13 cells) (rat (endogenous in INS-1 832/13)) (UniProt P32851); experiment: as above

Cav1.3 alpha1 pore-forming subunit (endogenous, INS-1 832/13 cells), P27732 1-2203 (natural protein), sequence (P27732 whole entry): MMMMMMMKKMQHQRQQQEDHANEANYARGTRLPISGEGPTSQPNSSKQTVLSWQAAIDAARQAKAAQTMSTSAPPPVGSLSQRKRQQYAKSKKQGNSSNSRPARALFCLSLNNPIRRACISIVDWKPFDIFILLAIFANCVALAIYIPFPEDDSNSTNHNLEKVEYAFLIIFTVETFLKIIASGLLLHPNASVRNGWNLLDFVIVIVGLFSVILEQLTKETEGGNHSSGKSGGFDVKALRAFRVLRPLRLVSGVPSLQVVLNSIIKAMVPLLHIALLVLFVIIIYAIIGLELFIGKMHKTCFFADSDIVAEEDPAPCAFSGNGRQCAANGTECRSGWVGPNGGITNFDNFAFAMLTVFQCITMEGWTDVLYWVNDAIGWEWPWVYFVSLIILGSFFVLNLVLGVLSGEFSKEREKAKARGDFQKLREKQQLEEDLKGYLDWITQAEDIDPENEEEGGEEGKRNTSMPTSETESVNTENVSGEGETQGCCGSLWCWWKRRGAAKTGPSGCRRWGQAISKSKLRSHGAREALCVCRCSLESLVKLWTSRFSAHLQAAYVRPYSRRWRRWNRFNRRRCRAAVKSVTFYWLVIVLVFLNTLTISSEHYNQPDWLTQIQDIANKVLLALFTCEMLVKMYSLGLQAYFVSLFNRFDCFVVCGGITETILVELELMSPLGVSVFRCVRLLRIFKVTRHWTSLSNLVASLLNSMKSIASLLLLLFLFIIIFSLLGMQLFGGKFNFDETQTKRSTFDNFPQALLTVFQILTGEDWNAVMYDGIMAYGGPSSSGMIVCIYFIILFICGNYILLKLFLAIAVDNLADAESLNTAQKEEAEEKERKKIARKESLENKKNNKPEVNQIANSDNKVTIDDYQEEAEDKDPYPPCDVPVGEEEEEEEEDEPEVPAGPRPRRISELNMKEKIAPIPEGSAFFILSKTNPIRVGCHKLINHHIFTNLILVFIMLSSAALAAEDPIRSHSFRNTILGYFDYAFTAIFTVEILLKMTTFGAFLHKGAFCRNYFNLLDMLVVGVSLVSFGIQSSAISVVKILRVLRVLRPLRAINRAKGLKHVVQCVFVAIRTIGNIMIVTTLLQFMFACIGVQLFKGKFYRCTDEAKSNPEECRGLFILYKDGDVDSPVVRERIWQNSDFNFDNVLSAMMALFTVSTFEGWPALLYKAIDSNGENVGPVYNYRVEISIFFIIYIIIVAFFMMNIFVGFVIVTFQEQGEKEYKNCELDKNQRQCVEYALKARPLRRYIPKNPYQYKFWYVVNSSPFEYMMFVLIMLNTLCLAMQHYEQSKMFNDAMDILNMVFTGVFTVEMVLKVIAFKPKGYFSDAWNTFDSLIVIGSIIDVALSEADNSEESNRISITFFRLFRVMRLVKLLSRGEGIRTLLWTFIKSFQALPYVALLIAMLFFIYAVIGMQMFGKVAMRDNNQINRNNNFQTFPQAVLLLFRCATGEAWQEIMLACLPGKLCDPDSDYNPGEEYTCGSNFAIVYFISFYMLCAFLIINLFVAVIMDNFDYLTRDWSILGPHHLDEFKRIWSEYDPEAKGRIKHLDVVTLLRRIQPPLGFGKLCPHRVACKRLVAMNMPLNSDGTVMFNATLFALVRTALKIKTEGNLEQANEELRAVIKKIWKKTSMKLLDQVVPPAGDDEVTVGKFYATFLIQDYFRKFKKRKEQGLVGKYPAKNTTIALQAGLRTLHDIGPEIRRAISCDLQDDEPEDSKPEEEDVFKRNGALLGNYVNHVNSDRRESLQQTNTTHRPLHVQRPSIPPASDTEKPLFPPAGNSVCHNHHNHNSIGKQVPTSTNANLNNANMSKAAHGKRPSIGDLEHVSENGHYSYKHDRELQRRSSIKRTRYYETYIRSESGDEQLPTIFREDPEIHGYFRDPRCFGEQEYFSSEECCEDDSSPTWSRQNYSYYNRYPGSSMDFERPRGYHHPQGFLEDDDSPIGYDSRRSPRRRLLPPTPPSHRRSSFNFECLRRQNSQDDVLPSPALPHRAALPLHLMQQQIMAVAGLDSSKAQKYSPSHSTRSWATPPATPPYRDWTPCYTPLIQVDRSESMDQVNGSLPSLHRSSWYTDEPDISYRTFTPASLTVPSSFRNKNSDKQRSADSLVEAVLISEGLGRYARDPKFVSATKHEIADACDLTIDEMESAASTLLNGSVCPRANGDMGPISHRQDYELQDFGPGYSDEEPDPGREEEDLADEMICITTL
Cav1.3 alpha1 subunit expressed in HEK293 cells, P27732 1-2203 (natural protein), sequence (P27732 whole entry): as above
Cav2.3 alpha1 subunit expressed in HEK293 cells, Q07652 1-2222 (natural protein), sequence (Q07652 whole entry): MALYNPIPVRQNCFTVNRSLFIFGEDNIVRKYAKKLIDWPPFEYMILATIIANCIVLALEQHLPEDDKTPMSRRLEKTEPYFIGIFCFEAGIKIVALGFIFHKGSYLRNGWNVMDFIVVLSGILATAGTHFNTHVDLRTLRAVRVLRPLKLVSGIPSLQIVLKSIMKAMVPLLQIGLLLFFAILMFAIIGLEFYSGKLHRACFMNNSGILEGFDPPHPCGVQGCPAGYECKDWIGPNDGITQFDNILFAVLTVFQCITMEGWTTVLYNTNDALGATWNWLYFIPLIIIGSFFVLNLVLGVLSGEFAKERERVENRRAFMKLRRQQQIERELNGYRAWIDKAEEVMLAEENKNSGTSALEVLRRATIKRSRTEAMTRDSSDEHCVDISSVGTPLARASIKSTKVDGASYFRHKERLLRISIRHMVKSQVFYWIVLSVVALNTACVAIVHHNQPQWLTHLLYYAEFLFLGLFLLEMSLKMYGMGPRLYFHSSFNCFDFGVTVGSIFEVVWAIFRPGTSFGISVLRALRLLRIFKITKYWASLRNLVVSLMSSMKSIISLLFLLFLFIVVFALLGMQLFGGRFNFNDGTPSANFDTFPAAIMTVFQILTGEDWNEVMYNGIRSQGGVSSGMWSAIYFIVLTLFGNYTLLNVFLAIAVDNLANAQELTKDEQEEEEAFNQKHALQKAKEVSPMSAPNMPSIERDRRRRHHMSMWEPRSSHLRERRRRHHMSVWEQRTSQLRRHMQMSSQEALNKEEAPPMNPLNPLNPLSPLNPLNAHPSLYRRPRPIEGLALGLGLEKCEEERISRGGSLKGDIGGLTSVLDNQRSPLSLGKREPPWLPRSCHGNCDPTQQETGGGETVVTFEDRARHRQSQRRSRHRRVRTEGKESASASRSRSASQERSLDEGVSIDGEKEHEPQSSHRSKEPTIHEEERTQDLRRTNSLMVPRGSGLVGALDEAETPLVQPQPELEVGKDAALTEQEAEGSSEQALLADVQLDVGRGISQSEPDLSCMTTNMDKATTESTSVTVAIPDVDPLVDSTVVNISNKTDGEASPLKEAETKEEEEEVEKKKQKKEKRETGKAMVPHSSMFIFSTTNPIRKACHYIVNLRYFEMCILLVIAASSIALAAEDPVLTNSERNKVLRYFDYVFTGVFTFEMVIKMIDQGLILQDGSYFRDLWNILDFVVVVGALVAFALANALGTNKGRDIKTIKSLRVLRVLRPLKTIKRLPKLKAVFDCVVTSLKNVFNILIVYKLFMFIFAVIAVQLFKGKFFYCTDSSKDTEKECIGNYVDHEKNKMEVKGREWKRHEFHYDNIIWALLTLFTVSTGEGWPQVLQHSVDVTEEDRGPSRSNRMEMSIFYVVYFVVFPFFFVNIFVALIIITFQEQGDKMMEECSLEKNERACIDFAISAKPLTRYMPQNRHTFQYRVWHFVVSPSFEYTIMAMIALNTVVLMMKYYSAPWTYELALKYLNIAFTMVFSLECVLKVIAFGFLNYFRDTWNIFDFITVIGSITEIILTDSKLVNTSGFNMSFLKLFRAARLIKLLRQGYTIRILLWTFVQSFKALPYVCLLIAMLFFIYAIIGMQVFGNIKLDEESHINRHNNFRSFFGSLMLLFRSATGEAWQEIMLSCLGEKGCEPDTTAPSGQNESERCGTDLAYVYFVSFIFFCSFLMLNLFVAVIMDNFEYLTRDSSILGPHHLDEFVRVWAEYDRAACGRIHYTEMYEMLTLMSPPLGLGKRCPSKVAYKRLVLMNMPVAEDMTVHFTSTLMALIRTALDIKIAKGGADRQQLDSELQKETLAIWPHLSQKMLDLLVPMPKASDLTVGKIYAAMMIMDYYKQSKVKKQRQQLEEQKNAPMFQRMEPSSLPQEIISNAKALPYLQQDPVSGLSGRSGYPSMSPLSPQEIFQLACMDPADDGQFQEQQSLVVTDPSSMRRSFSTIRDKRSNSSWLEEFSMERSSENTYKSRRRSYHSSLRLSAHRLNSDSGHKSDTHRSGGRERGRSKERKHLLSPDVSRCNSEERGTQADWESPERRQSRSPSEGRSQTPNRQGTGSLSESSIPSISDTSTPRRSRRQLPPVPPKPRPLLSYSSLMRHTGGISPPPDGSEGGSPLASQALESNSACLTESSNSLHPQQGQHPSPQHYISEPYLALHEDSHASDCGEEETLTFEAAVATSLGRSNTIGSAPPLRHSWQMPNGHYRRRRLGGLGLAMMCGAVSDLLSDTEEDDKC
Syntaxin-3 (endogenous, INS-1 832/13 cells) (rat (endogenous in INS-1 832/13)), sequence (Q08849 whole entry): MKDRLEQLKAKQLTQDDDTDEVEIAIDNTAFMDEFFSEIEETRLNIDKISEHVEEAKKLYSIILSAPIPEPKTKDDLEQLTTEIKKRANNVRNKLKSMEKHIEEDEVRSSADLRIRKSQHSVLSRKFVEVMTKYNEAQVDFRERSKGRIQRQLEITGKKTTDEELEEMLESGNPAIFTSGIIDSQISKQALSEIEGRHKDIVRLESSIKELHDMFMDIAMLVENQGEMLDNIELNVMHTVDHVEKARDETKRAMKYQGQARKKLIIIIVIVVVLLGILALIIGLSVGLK
GST-Syn-3 (cytoplasmic domain a.a. 1–263), sequence (Q08849 1-263): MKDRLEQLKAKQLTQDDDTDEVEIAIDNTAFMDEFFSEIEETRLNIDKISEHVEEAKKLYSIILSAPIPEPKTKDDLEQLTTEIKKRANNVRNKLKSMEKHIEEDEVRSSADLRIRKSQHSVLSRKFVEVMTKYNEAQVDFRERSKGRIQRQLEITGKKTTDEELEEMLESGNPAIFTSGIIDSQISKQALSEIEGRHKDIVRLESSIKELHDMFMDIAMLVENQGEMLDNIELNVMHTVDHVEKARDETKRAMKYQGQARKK
Cav2.3 alpha1 pore-forming subunit (endogenous, INS-1 832/13 cells), Q07652 1-2222 (natural protein), sequence (Q07652 whole entry): as the sequence (Q07652 whole entry) above
Syn-3 expressed in HEK293 cells, sequence (Q08849 whole entry): as the sequence (Q08849 whole entry) above

| Substance | percent recovery of total lysate input [1] | percent recovery of total lysate input [2] | percent recovery of total lysate input [3] | percent recovery of total lysate input [4] | percent recovery of total lysate input, basal (0.8 mM glucose) [5] | percent recovery of total lysate input, stimulated (16.7 mM glucose + 10 nM GLP-1) [5] | percent recovery of total lysate input, basal (0.8 mM glucose) [6] | percent recovery of total lysate input, stimulated (16.7 mM glucose + 10 nM GLP-1) [6] |
| --- | --- | --- | --- | --- | --- | --- | --- | --- |
| Cav2.3 alpha1 subunit expressed in HEK293 cells, Q07652 1-2222 (natural protein) | 20.1% | 8.4% | 6.1% | 2.2% |  |  |  |  |
| Cav2.3 alpha1 pore-forming subunit (endogenous, INS-1 832/13 cells), Q07652 1-2222 (natural protein) |  |  |  |  | 1.7% | 8.1% |  |  |
| Cav1.3 alpha1 subunit expressed in HEK293 cells, P27732 1-2203 (natural protein) | 5.3% | 25.7% | 7.8% | 18.1% |  |  |  |  |
| Cav1.3 alpha1 pore-forming subunit (endogenous, INS-1 832/13 cells), P27732 1-2203 (natural protein) |  |  |  |  | 1.9 to 2% | 2% | 1.9% | 15% |
